This note sets out measurements from the RNAGym collection of RNA variant scans (doi:10.1073/pnas.2313332121).

First the molecules themselves.
B1: TPR t1 (parent)
chain: GACCAAUCUGCCCUCAGAGCUCGAGAACAUCUUCGGAUGCAGAGGAGGCAGGCUUCGGUGGCGCGAUAGCGCCAACGUCCUCAACCUCCAAUGCAUCCCACCACAUGAUGAUGCCUGAAGAGCCUUGGUUUUUUG

The series covers variants of B1. The experiment in a line: polymerase ribozyme fitness, log enrichment relative to wild type (log ratio); higher = more active; in vitro selection for triplet polymerase activity. The procedure, abridged: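 Each subunit of a heterodimeric triplet polymerase ribozyme was mutagenized into a library by PCR, transcribed, and subjected to one round of in vitro selection, run in triplicate. Libraries were annealed with a biotinylated primer, the partner subunit and triplets, incubated frozen at −7 °C, and extended constructs were gel-excised, captured on streptavidin beads and recovered by RT-PCR. Input and output libraries were sequenced on Illumina, keeping genotypes with ≥10 input reads and ≥1 read per output. Fitness is log base 2 of genotype enrichment divided by wild-type enrichment, from inverse-variance-weighted replicate averages.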
As to C13A G44A, the “polymerase ribozyme fitness (log ratio)” value is -2.95.

For the variant C13G G19U C73U G113U, the “polymerase ribozyme fitness (log ratio)” value is -5.86.

Take C13G C40U C49A: the “polymerase ribozyme fitness (log ratio)” value is -2.42.

For the variant C13G G19U, the “polymerase ribozyme fitness (log ratio)” value is -4.76.

As to C13G A29U C34A G61U A111U U133C, the “polymerase ribozyme fitness (log ratio)” value was -1.41.

Consider C13G C53U G113A G128U, for which the “polymerase ribozyme fitness (log ratio)” value was -5.15.

Consider C13G A118U, for which the “polymerase ribozyme fitness (log ratio)” value is -1.02.

Turning to C13G G44A G63U G120U C123G, the “polymerase ribozyme fitness (log ratio)” value was -0.471.

Consider C13A G110A, for which the “polymerase ribozyme fitness (log ratio)” value is -1.4.

In the case of C13G G36C C56A U78A A90G G135U, the “polymerase ribozyme fitness (log ratio)” value is -4.08.

For the variant C13A G61U, the “polymerase ribozyme fitness (log ratio)” value is -1.08.

For the variant C13G C64U A95G U112C C124U, the “polymerase ribozyme fitness (log ratio)” value amounted to 0.563.

On to C13G A37G C53G G110U G113A, for which the “polymerase ribozyme fitness (log ratio)” value is -5.

Turning to C13G C72A, the “polymerase ribozyme fitness (log ratio)” value is -0.649.

As to C13G C72G, the “polymerase ribozyme fitness (log ratio)” value was -0.869.

Turning to C13A U14A U54A, the “polymerase ribozyme fitness (log ratio)” value is -2.73.

Turning to C13G C56G C88A G110C, the “polymerase ribozyme fitness (log ratio)” value was -5.35.

For the variant C13G A119G, the “polymerase ribozyme fitness (log ratio)” value was -0.865.

As to C13G C49A G60A C64U U96A U106G G110A U132C, the “polymerase ribozyme fitness (log ratio)” value is -6.52.

On to C13G C62G, for which the “polymerase ribozyme fitness (log ratio)” value is -3.43.

For the variant C13G C62A, the “polymerase ribozyme fitness (log ratio)” value was -1.11.

With C13G C72U U132A, the “polymerase ribozyme fitness (log ratio)” value is -2.7.

Turning to C13A G45C A84C A91C, the “polymerase ribozyme fitness (log ratio)” value was -4.71.

For C13A G69U U129A, the “polymerase ribozyme fitness (log ratio)” value is -1.63.

Turning to C13G G17U A18U C40G C56A G107A C114U, the “polymerase ribozyme fitness (log ratio)” value was -6.86.

On to C13A G44C C124A, for which the “polymerase ribozyme fitness (log ratio)” value is 0.459.

For C13G C64U A83U A95C G110A G120U, the “polymerase ribozyme fitness (log ratio)” value is -3.89.

For the variant C13G C56U C86U U130A, the “polymerase ribozyme fitness (log ratio)” value is -3.33.

For C13A G52A C53U A75U U81G G120U C124U G127U, the “polymerase ribozyme fitness (log ratio)” value was -1.17.

For C13G A43U C76U, the “polymerase ribozyme fitness (log ratio)” value was -1.01.

With C13G C79A C86A, the “polymerase ribozyme fitness (log ratio)” value was -5.8.

For the variant C13G C72U C94U C101G, the “polymerase ribozyme fitness (log ratio)” value was -4.88.

Regarding C13A U112A G120C, the “polymerase ribozyme fitness (log ratio)” value was -0.261.

For the variant C13G C28U C101U, the “polymerase ribozyme fitness (log ratio)” value is -4.7.

For C13G C73A A90C U92C U126A, the “polymerase ribozyme fitness (log ratio)” value is -5.92.

In the case of C13G A26G, the “polymerase ribozyme fitness (log ratio)” value is -3.54.

As to C13G A16U C56U A105G A111C, the “polymerase ribozyme fitness (log ratio)” value is -4.91.

With C13G C124U, the “polymerase ribozyme fitness (log ratio)” value is 0.0672.

In the case of C13G C62A C82A, the “polymerase ribozyme fitness (log ratio)” value is -3.18.

For C13G C73A U81G A121G, the “polymerase ribozyme fitness (log ratio)” value was -1.23.

As for C13A G93C, the “polymerase ribozyme fitness (log ratio)” value was -2.4.

On to C13A U112C, for which the “polymerase ribozyme fitness (log ratio)” value was -0.888.

With C13G C62U G113A, the “polymerase ribozyme fitness (log ratio)” value was -2.67.

For the variant C13G C72G C123U G135U, the “polymerase ribozyme fitness (log ratio)” value is -0.121.

Consider C13G C70U, for which the “polymerase ribozyme fitness (log ratio)” value was -1.62.

In the case of C13A U38A A46U C70G A121U, the “polymerase ribozyme fitness (log ratio)” value is -5.9.

As for C13G G19U G71C U112C, the “polymerase ribozyme fitness (log ratio)” value was -4.61.

For C13A U87A G113A, the “polymerase ribozyme fitness (log ratio)” value was -2.16.

As to C13A U33G C124G, the “polymerase ribozyme fitness (log ratio)” value was -4.34.

Regarding C13G C49A, the “polymerase ribozyme fitness (log ratio)” value was -1.26.

As for C13A G60U, the “polymerase ribozyme fitness (log ratio)” value was -1.81.

In the case of C13A G57U, the “polymerase ribozyme fitness (log ratio)” value was -1.78.

Turning to C13G C49U C82A C124G U125A, the “polymerase ribozyme fitness (log ratio)” value came out at 0.252.

For C13A U14C A16C C115A A119G, the “polymerase ribozyme fitness (log ratio)” value was -2.

Turning to C13A G52U C53U, the “polymerase ribozyme fitness (log ratio)” value was -3.61.

For C13A G69C, the “polymerase ribozyme fitness (log ratio)” value is -3.15.

For C13A G69A, the “polymerase ribozyme fitness (log ratio)” value is -3.52.

For the variant C13A G69U, the “polymerase ribozyme fitness (log ratio)” value is -1.23.

As to C13G C40G C85G C89G C123G, the “polymerase ribozyme fitness (log ratio)” value is -4.99.

As to C13G G25A C56G A91G C99U G120U, the “polymerase ribozyme fitness (log ratio)” value is -7.51.

For C13G A105U U112C, the “polymerase ribozyme fitness (log ratio)” value was -2.47.

Take C13G G39A: the “polymerase ribozyme fitness (log ratio)” value is -2.78.

In the case of C13G G39U, the “polymerase ribozyme fitness (log ratio)” value was -2.13.

C13G C40A G63A: the “polymerase ribozyme fitness (log ratio)” value was -4.13.

Consider C13G G19U G61U C73U G113U, for which the “polymerase ribozyme fitness (log ratio)” value is -5.34.

Turning to C13A G52U U55C, the “polymerase ribozyme fitness (log ratio)” value is -2.87.

On to C13G C82A G128C, for which the “polymerase ribozyme fitness (log ratio)” value is -3.69.

With C13G C72G C85A, the “polymerase ribozyme fitness (log ratio)” value is -3.33.

On to C13G C62G U87C A121C, for which the “polymerase ribozyme fitness (log ratio)” value is -3.3.

Regarding C13A U55C G69C G110U, the “polymerase ribozyme fitness (log ratio)” value is -4.5.

As to C13A G52U C70U, the “polymerase ribozyme fitness (log ratio)” value was -2.88.

Regarding C13A G71U A119G, the “polymerase ribozyme fitness (log ratio)” value is -1.25.

For C13G A41G G48U U78G A91C, the “polymerase ribozyme fitness (log ratio)” value is -5.06.

Regarding C13G G39A G113U C114A, the “polymerase ribozyme fitness (log ratio)” value was -4.57.

With C13A G63U C70U, the “polymerase ribozyme fitness (log ratio)” value is -0.406.

As to C13A U78C, the “polymerase ribozyme fitness (log ratio)” value is -1.78.

As to C13G A84C C102U, the “polymerase ribozyme fitness (log ratio)” value is -2.71.

For the variant C13A G60A C102U A118C G120U, the “polymerase ribozyme fitness (log ratio)” value is -2.89.

On to C13G A43U A84G A121C U131G, for which the “polymerase ribozyme fitness (log ratio)” value is -1.74.

Consider C13G C56G, for which the “polymerase ribozyme fitness (log ratio)” value was -2.09.

For C13A G93U C98U, the “polymerase ribozyme fitness (log ratio)” value was -4.03.

With C13G C40A A84U U106A, the “polymerase ribozyme fitness (log ratio)” value is -3.53.

Regarding C13A U59G C89G U106C, the “polymerase ribozyme fitness (log ratio)” value was -3.02.

Regarding C13G C114A, the “polymerase ribozyme fitness (log ratio)” value was -2.59.
